From patent US20140072613A1 (published 2014)

Columns and labels:
Assay in all cases: cell-based or functional assay
LKB1(h) = target: T1, LKB1(h) (human, UniProt Q15831 1-433)
T1 sequence (looked up): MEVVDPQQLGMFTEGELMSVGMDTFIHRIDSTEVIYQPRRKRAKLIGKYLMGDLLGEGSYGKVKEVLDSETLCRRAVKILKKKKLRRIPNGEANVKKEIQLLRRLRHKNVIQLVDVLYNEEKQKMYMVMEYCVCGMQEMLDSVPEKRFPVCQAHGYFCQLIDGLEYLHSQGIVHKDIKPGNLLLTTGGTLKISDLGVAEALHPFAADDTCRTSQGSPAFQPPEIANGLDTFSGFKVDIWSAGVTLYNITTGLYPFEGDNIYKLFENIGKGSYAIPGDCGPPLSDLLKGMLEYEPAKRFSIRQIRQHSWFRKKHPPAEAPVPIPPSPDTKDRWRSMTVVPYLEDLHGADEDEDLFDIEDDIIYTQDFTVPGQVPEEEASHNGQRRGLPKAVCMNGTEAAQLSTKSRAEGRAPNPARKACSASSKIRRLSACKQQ

MINK(h) = MINK(h) (human, UniProt Q8N4C8 1-320, limits assumed)
Chain of MINK(h) (Q8N4C8 1-320 limits assumed): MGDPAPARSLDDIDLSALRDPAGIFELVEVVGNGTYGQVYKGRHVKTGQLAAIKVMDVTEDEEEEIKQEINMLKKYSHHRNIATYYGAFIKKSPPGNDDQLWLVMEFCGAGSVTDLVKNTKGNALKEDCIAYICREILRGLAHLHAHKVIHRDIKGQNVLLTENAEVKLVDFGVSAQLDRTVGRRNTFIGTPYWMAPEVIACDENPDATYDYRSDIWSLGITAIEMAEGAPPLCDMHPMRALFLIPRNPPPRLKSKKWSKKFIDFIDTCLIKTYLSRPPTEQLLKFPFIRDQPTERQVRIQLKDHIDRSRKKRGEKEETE

CHK2(R145W)(h) = CHK2(R145W)(h) (human, UniProt O96017 5-543, limits assumed)
Chain of CHK2(R145W)(h) (O96017 5-543 R145W limits assumed): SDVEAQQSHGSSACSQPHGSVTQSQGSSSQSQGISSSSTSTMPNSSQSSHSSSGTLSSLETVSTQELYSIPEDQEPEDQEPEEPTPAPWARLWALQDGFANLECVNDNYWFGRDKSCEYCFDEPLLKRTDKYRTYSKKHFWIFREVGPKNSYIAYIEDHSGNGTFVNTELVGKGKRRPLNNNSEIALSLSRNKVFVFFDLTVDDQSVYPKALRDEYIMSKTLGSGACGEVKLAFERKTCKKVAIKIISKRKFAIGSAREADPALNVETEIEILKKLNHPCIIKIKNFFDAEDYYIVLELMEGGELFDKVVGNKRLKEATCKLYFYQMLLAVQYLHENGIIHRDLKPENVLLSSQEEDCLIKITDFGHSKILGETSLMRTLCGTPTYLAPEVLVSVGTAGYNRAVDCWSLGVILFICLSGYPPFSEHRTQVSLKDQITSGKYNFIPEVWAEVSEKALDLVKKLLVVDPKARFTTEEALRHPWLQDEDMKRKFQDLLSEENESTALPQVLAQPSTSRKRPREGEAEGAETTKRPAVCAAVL

AMPKα1(h) = AMPKα1(h) (human, UniProt Q13131 1-559)
Chain of AMPKα1(h) (Q13131 whole entry): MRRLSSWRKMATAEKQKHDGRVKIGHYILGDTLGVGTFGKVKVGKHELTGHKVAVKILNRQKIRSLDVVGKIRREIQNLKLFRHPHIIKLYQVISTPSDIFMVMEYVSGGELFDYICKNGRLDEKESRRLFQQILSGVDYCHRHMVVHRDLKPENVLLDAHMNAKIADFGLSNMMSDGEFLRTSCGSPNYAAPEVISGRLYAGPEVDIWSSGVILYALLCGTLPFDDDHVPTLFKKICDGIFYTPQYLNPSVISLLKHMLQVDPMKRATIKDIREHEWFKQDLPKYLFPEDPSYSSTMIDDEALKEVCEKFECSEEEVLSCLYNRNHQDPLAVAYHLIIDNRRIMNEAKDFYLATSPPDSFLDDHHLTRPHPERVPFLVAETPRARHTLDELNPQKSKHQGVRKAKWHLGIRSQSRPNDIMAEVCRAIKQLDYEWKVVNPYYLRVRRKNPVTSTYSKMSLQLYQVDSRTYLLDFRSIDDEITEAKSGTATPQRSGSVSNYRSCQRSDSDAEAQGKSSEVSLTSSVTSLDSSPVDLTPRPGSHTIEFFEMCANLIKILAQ

GRK6(h) = GRK6(h) (human, UniProt P43250 1-576)
Chain of GRK6(h) (P43250 whole entry): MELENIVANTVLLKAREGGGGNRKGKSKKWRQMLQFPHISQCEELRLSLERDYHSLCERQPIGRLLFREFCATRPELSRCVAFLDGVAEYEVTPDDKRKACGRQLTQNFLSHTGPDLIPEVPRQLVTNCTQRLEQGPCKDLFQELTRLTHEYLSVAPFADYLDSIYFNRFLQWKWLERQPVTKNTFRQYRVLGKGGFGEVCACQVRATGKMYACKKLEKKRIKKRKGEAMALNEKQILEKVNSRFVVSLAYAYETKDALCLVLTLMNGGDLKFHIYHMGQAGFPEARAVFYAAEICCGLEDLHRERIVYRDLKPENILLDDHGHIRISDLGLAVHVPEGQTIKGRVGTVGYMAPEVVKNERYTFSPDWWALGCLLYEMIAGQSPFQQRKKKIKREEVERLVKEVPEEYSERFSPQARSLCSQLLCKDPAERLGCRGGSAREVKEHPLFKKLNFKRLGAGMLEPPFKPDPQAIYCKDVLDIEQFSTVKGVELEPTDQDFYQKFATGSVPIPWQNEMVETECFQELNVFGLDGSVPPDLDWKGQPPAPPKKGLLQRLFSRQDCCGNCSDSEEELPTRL

Pyk2 (h) = Pyk2 (h) (human, UniProt Q14289 1-1009, limits assumed)
Chain of Pyk2 (h) (Q14289 whole entry): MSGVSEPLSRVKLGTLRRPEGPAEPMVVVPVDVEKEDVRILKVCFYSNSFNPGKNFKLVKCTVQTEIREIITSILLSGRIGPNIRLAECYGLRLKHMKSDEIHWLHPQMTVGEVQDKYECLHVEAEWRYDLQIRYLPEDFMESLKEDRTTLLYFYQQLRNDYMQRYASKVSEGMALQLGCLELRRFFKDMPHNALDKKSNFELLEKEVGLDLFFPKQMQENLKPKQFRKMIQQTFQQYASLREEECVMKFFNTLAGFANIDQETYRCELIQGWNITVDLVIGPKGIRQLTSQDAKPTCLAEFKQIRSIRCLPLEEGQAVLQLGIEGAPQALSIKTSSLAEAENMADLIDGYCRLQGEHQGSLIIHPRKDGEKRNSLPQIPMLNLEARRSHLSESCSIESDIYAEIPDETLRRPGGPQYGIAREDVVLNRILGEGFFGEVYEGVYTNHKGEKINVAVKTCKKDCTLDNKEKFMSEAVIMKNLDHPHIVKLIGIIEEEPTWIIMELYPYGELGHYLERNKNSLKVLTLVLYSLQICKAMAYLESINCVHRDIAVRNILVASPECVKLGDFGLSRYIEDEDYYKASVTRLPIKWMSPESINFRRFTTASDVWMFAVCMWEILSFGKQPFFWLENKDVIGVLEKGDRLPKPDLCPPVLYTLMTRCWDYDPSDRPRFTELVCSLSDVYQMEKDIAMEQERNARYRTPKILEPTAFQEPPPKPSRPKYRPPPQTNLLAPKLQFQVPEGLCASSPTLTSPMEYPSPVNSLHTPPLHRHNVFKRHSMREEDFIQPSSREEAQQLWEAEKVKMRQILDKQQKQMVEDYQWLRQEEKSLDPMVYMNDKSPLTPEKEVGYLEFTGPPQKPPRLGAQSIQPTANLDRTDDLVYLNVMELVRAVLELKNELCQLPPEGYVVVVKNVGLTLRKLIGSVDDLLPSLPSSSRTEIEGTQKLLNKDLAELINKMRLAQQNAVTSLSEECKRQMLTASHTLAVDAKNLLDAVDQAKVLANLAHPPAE

NEK11(h) = target: T2, NEK11(h) (human, UniProt Q8NG66 1-645, limits assumed)
T2 sequence (looked up): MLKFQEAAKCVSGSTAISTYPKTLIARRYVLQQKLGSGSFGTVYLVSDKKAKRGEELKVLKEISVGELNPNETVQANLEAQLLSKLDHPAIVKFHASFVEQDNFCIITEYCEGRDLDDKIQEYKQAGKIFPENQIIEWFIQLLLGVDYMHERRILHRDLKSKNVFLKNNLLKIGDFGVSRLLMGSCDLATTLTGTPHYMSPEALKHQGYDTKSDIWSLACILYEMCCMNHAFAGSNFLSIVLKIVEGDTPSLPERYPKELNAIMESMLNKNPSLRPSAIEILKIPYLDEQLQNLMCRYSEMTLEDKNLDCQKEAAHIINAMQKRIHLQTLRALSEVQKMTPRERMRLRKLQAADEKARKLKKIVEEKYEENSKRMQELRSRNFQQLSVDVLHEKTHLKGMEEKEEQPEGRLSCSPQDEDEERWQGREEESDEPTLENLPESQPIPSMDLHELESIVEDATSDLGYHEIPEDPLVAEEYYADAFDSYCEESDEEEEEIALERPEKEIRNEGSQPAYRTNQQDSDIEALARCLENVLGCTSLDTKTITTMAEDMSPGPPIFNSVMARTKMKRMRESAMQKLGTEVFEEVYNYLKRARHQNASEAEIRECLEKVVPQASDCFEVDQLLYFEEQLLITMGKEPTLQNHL

Aurora-A(h) = target: T3, Aurora-A(h) (human, UniProt O14965 1-403)
T3 sequence (looked up): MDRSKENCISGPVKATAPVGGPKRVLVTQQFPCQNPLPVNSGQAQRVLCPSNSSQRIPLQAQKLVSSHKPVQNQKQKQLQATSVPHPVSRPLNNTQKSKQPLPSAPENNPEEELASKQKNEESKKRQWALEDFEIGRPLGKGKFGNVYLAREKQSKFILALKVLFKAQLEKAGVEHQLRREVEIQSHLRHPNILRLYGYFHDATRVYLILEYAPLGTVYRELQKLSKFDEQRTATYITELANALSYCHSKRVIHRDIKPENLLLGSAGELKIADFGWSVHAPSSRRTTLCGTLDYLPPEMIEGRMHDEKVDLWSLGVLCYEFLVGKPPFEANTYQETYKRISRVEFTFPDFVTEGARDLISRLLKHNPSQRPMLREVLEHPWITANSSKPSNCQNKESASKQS

mTOR(h) = mTOR(h) (human, UniProt P42345 1362-2549)
MEK1(h) = MEK1(h) (human, UniProt Q02750 1-393)
ALK(h) = ALK(h) (human, UniProt Q9UM73 1058-1620, limits assumed)
Chain of ALK(h) (Q9UM73 1058-1620 limits assumed): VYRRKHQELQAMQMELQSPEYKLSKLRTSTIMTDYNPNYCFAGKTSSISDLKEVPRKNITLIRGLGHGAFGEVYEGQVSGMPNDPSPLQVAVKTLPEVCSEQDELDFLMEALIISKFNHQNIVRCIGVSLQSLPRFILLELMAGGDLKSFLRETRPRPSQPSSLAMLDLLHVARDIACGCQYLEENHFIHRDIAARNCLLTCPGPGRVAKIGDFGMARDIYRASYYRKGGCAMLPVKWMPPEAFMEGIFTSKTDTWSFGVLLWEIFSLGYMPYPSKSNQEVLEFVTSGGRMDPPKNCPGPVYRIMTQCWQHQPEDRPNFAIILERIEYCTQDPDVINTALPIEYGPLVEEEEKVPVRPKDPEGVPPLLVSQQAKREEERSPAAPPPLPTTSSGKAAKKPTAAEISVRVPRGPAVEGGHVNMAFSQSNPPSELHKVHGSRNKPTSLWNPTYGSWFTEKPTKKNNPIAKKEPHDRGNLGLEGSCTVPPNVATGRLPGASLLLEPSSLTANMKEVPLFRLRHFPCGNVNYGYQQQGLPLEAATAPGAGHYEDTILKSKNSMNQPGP

TrkA(h) = TrkA(h) (human, UniProt P04629 441-796, limits assumed)
Chain of TrkA(h) (P04629 441-796 limits assumed): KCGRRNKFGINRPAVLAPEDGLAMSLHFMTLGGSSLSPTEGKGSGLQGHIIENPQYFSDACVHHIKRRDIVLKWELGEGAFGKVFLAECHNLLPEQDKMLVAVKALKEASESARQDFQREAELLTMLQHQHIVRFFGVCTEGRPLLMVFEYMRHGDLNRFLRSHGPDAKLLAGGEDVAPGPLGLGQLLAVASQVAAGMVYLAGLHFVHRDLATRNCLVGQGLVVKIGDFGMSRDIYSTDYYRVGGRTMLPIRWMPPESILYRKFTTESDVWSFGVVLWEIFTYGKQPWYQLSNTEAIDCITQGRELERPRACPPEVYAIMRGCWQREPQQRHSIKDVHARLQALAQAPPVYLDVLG

Axl(h) = target: T4, Axl(h) (human, UniProt P30530 473-894, limits assumed)
T4 sequence (looked up): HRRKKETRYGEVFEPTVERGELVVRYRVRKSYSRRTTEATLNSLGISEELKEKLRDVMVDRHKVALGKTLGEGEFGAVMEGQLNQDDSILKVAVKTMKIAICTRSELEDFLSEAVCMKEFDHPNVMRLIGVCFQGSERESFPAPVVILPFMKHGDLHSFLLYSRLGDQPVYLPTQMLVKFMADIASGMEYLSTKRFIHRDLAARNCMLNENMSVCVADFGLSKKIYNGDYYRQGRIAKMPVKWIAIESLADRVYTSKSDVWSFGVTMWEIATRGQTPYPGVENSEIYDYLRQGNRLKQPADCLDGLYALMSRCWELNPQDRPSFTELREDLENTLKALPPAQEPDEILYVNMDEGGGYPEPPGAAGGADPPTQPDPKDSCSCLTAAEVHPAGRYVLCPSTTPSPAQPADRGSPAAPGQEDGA

Flt4(h) = Flt4(h) (human, UniProt P35916 800-1363, limits assumed)
Chain of Flt4(h) (P35916 800-1363 limits assumed): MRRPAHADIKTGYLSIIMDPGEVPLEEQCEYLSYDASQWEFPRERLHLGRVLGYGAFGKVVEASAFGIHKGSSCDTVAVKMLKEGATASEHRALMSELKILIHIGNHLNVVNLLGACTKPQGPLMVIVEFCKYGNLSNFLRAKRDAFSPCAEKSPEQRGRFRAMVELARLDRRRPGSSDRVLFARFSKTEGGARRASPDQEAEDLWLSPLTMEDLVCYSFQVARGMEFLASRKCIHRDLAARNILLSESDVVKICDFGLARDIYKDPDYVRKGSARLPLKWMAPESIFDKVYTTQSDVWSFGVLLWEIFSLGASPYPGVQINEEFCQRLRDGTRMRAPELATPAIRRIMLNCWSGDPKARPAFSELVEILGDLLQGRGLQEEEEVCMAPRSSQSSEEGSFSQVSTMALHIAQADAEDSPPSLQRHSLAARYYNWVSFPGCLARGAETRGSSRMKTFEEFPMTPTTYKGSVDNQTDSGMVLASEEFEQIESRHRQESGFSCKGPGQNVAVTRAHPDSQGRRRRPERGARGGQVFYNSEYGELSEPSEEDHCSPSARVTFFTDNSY

Row | Binder | % activity, 100 µM (LKB1(h)) | % activity, 100 µM (MINK(h)) | % activity, 100 µM (CHK2(R145W)(h)) | % activity, 100 µM (AMPKα1(h)) | % activity, 100 µM (GRK6(h)) | % activity, 100 µM (Pyk2 (h)) | % activity, 100 µM (NEK11(h)) | % activity, 100 µM (Aurora-A(h)) | % activity, 100 µM (mTOR(h)) | % activity, 100 µM (MEK1(h)) | % activity, 100 µM (ALK(h)) | % activity, 100 µM (TrkA(h)) | % activity, 100 µM (Axl(h)) | % activity, 100 µM (Flt4(h))
1 | KAFAKLAARLYRKALARQLGVAA [MMI-0400] | 89% | 52% | 31% | 87% | 141% | 34% | 33% | 119% | 93% | 77% | 16% | 17% | 41% | 89%
2 | FAKLAARLYRKALARQLGVAA [MMI-0300] | 101% | 48% | 33% | 71% | 147% | 47% | 53% | 92% | 91% | 77% | 19% | 25% | 52% | 83%
